System: K4 kissing-loop RNA reporter
Test: apparent KD of K4 kissing-loop reporter; higher = weaker reporter binding
Conditions: Eterna round: R107; input ligand: none
Description: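 RNA-MaP round R107: designed RNA switches with theophylline, tryptophan, arginine or FMN aptamers are transcribed on-chip within common flanks. They are titrated with a labelled K4 kissing-loop RNA reporter in RNA-MaP buffer (100 mM Tris pH 7.5, 80 mM KCl, 4 mM MgCl2), without ligand or with the indicated ligand. Median apparent KD per design.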
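Also: bound reporter read as fluorescence of individual clusters on recovered sequencing chips by microscopy, with normalized cluster intensities fitted with a binding model.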

Row | Sequence | apparent KD of K4 kissing-loop reporter
1 | GGUAGCAUGGCGGCCGCCACUUCAAUUGGAGUGAUGUUCCAAGGCAUCGCGAAAGCGAUGCCAGGAAGGACCGGGCCAUGCUACC | 306 nM
2 | AAAAUAAAUCAGUGAUGUUGGUGUCCAGAUACCAGCGACGAAAGUCGCCCUUGGCAGCUGUGGACGUACAAAAUAAGUACGUCCU [MatMod 22 - Jieux - Same State - Theophylline A] | 611 nM
3 | GCGGGCGGCUGAAGGAGCGGGCGGGCCCGAGUGAUGUUCGGGUGGGCCGUGAGGCCCGGAGCCCAGGUAGGUCGCGGUUCCGUCC [#2 Same State - Arginine B Attempt #19 (HarryS)] | 126 nM
4 | GGAUAGGAUAGAGGAUAUGGGUUAGGCAAGAAUAACUUGUCUUGUAAAUCCAUGAGGAGUGAUGUUCCAGAAGGCUGUCCUAUCG [MatMod 5 - Jieux - Exclusion - FMN B] | 112 nM
5 | AAAAUAAACCAGUGAUGUUGGUGUCUGGAUACCAGCGACGAAAGUCGCCCUUGGCAGCUACGGACGUACAAAAUAAGUACGUCCU [MatMod 8 - Jieux - Same State - Theophylline A] | 655 nM
6 | UGUCGAGUGAUGUUCGAUUUGGUGCAUGCAGAGGAUAUAGGGUGGGCUAGAAGGCUGAAAAGUGCUUCGAGUGAUGUUCGAAGUU [Exclusion FMN A GF10] | 100 nM
7 | GAGGUACAGGCGGCCGCCACUAGUGAUGUUAGUGAUAGAAGAUAUAGUAAAUAUCGGCAUUUAGAUAGGACCGGGCCUGGUGGUG [ffdfcmullin] | 271 nM
8 | AAGUGUGUGGCGGCCGCCACUAGUCUCCAGUGAUGUUGGAGAUAUCACGUAAGUGAUAUCCGACAUAGGACCGGGCCAUAUAGAA [Same State - Tryptophan B (Freestyle 21)] | 688 nM
9 | AGGUCCGAGCCUGUAAAGGCUCGGACCUGUUAGGAUAUGACGUUAUUCAGAAGGGAUGGGUGGAGUGAUGUUCCACCCGCAAGGG [#2 Same State - FMN A Attempt #5 (HarryS)] | 111 nM
10 | UAUGGUCCAUCAAGAGUAGUGAUGUUAUAACGAGGACCGGUACGGCCGCCACUCGAGGCCGUAAUACUCGAUCGGAUGCUGAGUG [theeternabot_exclusion_KL_Trp_A_28] | 1180 nM
11 | CCAAUCUGUUACGAUACCAGUCAAAGAUAUUUGAUCAAUACCCUCACCGAGUGAUGUUCGGACCCUUGGCAGCGUCUGGGAUAGG [ceevmullin] | 266 nM
12 | CUAUCCCGCCGUGUAUGUAGUAUACGGUGCCGAGGACCGGUACGGCCGCCACUCGAUAAGCUUUGUCGGAGUGAUGUUCCGACCG [Soleesen] | 213 nM
13 | UAAUUUAUGUCUUUAAUAUAAUAAUCAGAUACCAGUGAUUAAUGACACCCUUGGCAGCUGUAUAGAGUGAUGUUCUUAUGCUUAA [JR_ExcTheophyA_Sub010] | 288 nM
14 | GGAGGGAUCUCGGCCGCCACUCAUAAGAAAUGAACCUAAGAAAUAUAGUGAUGUUAUAUAAAGAAGAGGACCGGGAGAAAGGAGG [ExTryptoB.A] | 197 nM
15 | GGGAGUAGUGCGGCCGCCACUGUGAAAGAAGAAGAAUAUAGUGAUGUUAUAUAGGAAUUAAAGAAUAGGACCGGGCAUUAGAUUU [SSTRyptB.Q] | 260 nM
16 | AACUCUCAGACACCUGAGUGAUGUUCAGGCCGAGGACCGGUACGGCCGCCACUCGGGUCUGAGAGAGGUUAUCAAAGAUAGCCAA [Omei KL Tryp A SS A v3] | 336 nM
17 | UGCAGUGAUGUUGCUAUUUUUCUUGAUUAACGAGGACCGGUACGGCCGCCACUCGAUUUCUCUCUAAUCCAGUAUGUUGUUUAGU [JR_ExcTryptoA_Sub001] | 121 nM
18 | UGAUAGGAGAGAAGGAGCGGGAGUGAUGUUCCCAAAGAUUGGUCUAGCAAAGCUGGACCCUCCCAGGUAGGUCGCUCUCCUAUCU [KL-XARG-B16] | 434 nM
19 | CGAGUGAUGUUCGAAGAGUUGUUAAGCGAUACCAGCUAGGAAACUGGCCCUUGGCAGCGUAAUAAGUUAAUAAAUAAAUGAUCAC [whbob_Ex_Theo_A_th64] | 360 nM
20 | GAUGAUCGCGCGGCCGCCACUGGUCAGUGAUGUUGACAUUAAGGCGCCGAGUAGUAACGGCGCCACAGGACCGGGCGCGAUGUAG [First Shot] | 156 nM
21 | UGCUUUAUCAGAAGGAGCGCGUUGGUCAUAAUAAUAAUCAGUGAUGUUGAUAUAUGAGGAUUGCAGGUAGGUCGCUGAUAUAGCU [KL-XARG-B1] | 390 nM
22 | GUGUGUGUCGGAGGAUAUGCGGUGGGUGUGGGCGGAUUAGUGAUGUUGGUUGUGGUGGUGGUGGGUGUAGAAGGUUGGUGUGUGU [RHig 3/7 C] | 738 nM

Same assay, conditions: Eterna round: R107; input ligand: theophylline 20 uM

Row | Sequence | apparent KD of K4 kissing-loop reporter
23 | CCCAAGGGCGAACCGGUAUGAUCGACGGAUACCAGAGGCGAAAGCCUCCCUUGGCAGCCGGCUGUAGUGAUGUUACACUGGUUCU | 186 nM
24 | AACUCUCAGACAUUUGAGUGAUGUUCAGGCCGAGGACCGGUACGGCCGCCACUCGGGUCUGAGAGAGGUUAUCAAAGAUAGCCAA [Omei KL Tryp A SS A v6] | 214 nM
25 | AGAGUUAAUUAGUCUUUUUUAACAUUAAGUCAGGAUAUCGUAUAUUCGAGAAGGGACACAUGCUAGUGAUGUUAGCUAUUUCUCA [JR_ExcFMNA_Sub018] | 86.7 nM
26 | UGGACCAGGAGUGAUGUUCCAAAAUGUGAUACCAGCCACGAAAGUGGCCCUUGGCAGCACUGCCAGGACGAAAACGUCCGGUCCU [#SwitchBubble 11 #StaticStem #K4Early] | 268 nM
27 | GGUCGGAGUGAUGUUCCGAGCUUCAGUCAUCGAGGACCGGUACGGCCGCCACUCGUCUACUAUGACGUAUCACCCUCCACGUGUU [theeternabot_sameState_KL_Trp_A_33] | 145 nM
28 | AAAAUAAACCAGUGAUGUUGGUGUCCAGAUACCAGCGAUAAUAAUCGCCCUUGGCAGCUGCGGACGUACAAAAUAAGUACGUCCU [MatMod 11 - Jieux - Same State - Theophylline A] | 294 nM
29 | UAAUAUACGAGUGAUGUUCGUUAUUUAUCAGAGGAUAUGCUUAAAUGCAGAAGGCUGUUUUUCUAAUUGAUAUUAAAUUUUUUUA [JR_Nu_ExcFMNA_Sub028] | 89.7 nM
30 | AUGCGGUGGAGGCUACCGCUAUUCUGAGAAGGAGCGCAGAUGACUGCAGGUAGGUCGCUUAGAGCUUGCAGUGAUGUUGCAAGUU [Islatimaed] | 174 nM
31 | GCUAUGGUAGGAAGGAGCGCUUAAUUACUAAUAAGAGUGAUGUUCGAUAGUAGGUAUUUAUAGCAGGUAGGUCGCCUACUAUAGC [KL-Arg B23] | 244 nM
32 | CACUCGGUAUCAGAUACCAGACUAACGAUACCGAGUGUAUCGGGUAGUGAUGUUACCAUAGUCCCUUGGCAGCUGAUAUACCAUA [Theo B SS t9] | 269 nM
33 | UAAUCCUAGUGAUAAUAAUCAAGUGGUGGACGAGGACCGGUACGGCCGCCACUCGAAAAUGCAGUGAUGUUGUAAUCCGGAUAAU [Exclusion - Tryptophan A (Freestyle 4)] | 771 nM
34 | ACGUCAUCAAAAGGAUAUGCAUCGAAGUGAUGUUUCGUCAUAUCAGUCUGAUUGCAGCAAUUAGGAGCAGAAGGUUUAGUCCGGU [theeternabot_exclusion_KL_FMN_B_11] | 77.6 nM
35 | ACCGCAUUGGGAUGAUCCCAAUGCGCUGGUCGAGGACCGGUACGGCCGCCACUCGUCCAGUGAUGUUGGACUAGGGCAACUGAAG [Bileesma] | 303 nM
36 | UGAUUUAACUGAAGGAGCGGCAAUUGAUAAGUAAAUAUAGUGAUGUUAUAUAAGAUAGAGAGCCAGGUAGGUCGCAGAGGUAGGA [ExArgB.K] | 178 nM
37 | AAGUGAUGUUGUAGUGAUGUUGUGAUGUUGCAGGAUAUAUAGUGAUGUAGAAGGGUAUGUACUUAUUUUUUUUUUGAGUUUUGUU [xgghzrmullin] | 47.1 nM
38 | AUAUUAAGCGGAAGGAGCGGCUGAACCAGUGAUGUUGGUUAAUCCAAGUGAUGUUGGAAAAGCCAGGUAGGUCGCCGCUAUAUAU [Same State Arg B GF 1] | 569 nM

Row | Sequence | apparent KD of K4 kissing-loop reporter
39 | AUUAAUAUCACGGCCGCCACUGAAUAUUGUUUUUAUAUUUAGAAUAAUUGCCAGUGAUGUUGGAUCAGGACCGGGUGAUUUUAUA [JR_SSTryptoB_Sub008] | 739 nM
40 | AAAAUAAUCCAGUGAUGUUGGUAUCCAGAUACCAGCCACGAAAGUGGCCCUUGGCAGCUGUAGGACGUACAAAUAAGUACGUCCA [#OpenEnded 7 #StaticStem #K4Early] | 486 nM
41 | UGAUAGGACAGAAGGAGCGGCAGUGAUGUUGCCAAAAGGAUAAGGUGUCAAAAGACACCCUGCCAGGUAGGUCGCUGUCCUAUCU | 298 nM
42 | CGAGUGAUGUUCGUUCGUUUAUUUGGGUGACAGGAUAUGCGGAAACGCAGAAGGGUCACCUUCGGGUUACCCGAAUUAACGUUAU [#09 K4 FMN A Exclusion] | 587 nM
43 | CUCGAGUGAUGUUCGAUUAUGUAUACAGAUACCAGUGAAUUUUAACACCCUUGGCAGCUGGUAGAAUCAUUUUAAUUUUAACUAG [JR_SSTheophyA_Sub021] | 268 nM
44 | GGUAGCAUGGCGGCCGCCACUUCAAUUGGAGUGAUGUUCCAAGGCAUCGCGAAAGCGAUGCCAGGAAGGACCGGGCCAUGCUACC | 222 nM
45 | AAAAUAAAUCAGUGAUGUUGGUGUCCAGAUACCAGCGACGAAAGUCGCCCUUGGCAGCUGUGGACGUACAAAAUAAGUACGUCCU [MatMod 22 - Jieux - Same State - Theophylline A] | 335 nM
46 | GCGGGCGGCUGAAGGAGCGGGCGGGCCCGAGUGAUGUUCGGGUGGGCCGUGAGGCCCGGAGCCCAGGUAGGUCGCGGUUCCGUCC [#2 Same State - Arginine B Attempt #19 (HarryS)] | 170 nM
47 | GGAUAGGAUAGAGGAUAUGGGUUAGGCAAGAAUAACUUGUCUUGUAAAUCCAUGAGGAGUGAUGUUCCAGAAGGCUGUCCUAUCG [MatMod 5 - Jieux - Exclusion - FMN B] | 114 nM
48 | AAAAUAAACCAGUGAUGUUGGUGUCUGGAUACCAGCGACGAAAGUCGCCCUUGGCAGCUACGGACGUACAAAAUAAGUACGUCCU [MatMod 8 - Jieux - Same State - Theophylline A] | 680 nM
49 | UGUCGAGUGAUGUUCGAUUUGGUGCAUGCAGAGGAUAUAGGGUGGGCUAGAAGGCUGAAAAGUGCUUCGAGUGAUGUUCGAAGUU [Exclusion FMN A GF10] | 100 nM
50 | GAGGUACAGGCGGCCGCCACUAGUGAUGUUAGUGAUAGAAGAUAUAGUAAAUAUCGGCAUUUAGAUAGGACCGGGCCUGGUGGUG [ffdfcmullin] | 286 nM
51 | AAGUGUGUGGCGGCCGCCACUAGUCUCCAGUGAUGUUGGAGAUAUCACGUAAGUGAUAUCCGACAUAGGACCGGGCCAUAUAGAA [Same State - Tryptophan B (Freestyle 21)] | 556 nM
52 | AGGUCCGAGCCUGUAAAGGCUCGGACCUGUUAGGAUAUGACGUUAUUCAGAAGGGAUGGGUGGAGUGAUGUUCCACCCGCAAGGG [#2 Same State - FMN A Attempt #5 (HarryS)] | 116 nM
53 | UAUGGUCCAUCAAGAGUAGUGAUGUUAUAACGAGGACCGGUACGGCCGCCACUCGAGGCCGUAAUACUCGAUCGGAUGCUGAGUG [theeternabot_exclusion_KL_Trp_A_28] | 794 nM
54 | CCAAUCUGUUACGAUACCAGUCAAAGAUAUUUGAUCAAUACCCUCACCGAGUGAUGUUCGGACCCUUGGCAGCGUCUGGGAUAGG [ceevmullin] | 281 nM

Reference: the supplement of paper PMC9170038
